B1: Epstein-Barr nuclear antigen leader protein (Epstein-Barr virus (strain B95-8) (HHV-4)), Q8AZK7 (parent)
chain: MGDRSEGPGPTRPGPPGIGPEGPLGQLLRRHRSPSPTRGGQEPRRVRRRVLVQQEEEVVSGSPSGPRGDRSEGPGPTRPGPPGIGPEGPLGQLLRRHRSPSPTRGGQEPRRVRRRVLVQQEEEVVSGSPSGPRGDRSEGPGPTRPGPPGIGPEGPLGQLLRRHRSPSPTRGGQEPRRVRRRVLVQQEEEVVSGSPSGPRGDRSEGPGPTRPGPPGIGPEGPLGQLLRRHRSPSPTRGGQEPRRVRRRVLVQQEEEVVSGSPSGPRGDRSEGPGPTRPGPPGIGPEGPLGQLLRRHRSPSPTRGGQEPRRVRRRVLVQQEEEVVSGSPSGPRGDRSEGPGPTRPGPPGIGPEGPLGQLLRRHRSPSPTRGGQEPRRVRRRVLVQQEEEVVSGSPSGPRGDRSEGPGPTRPGPPGIGPEGPLGQLLRRHRSPSPTRGGQEPRRVRRRVLVQQEEEVVSGSPSGPLRPRPRPPARSLREWLLRIRDHFEPPTVTTQRQSVYIEEEEDED

Variants of: B1
Details: with hdac4_human HDAC4, P56524
Chain of hdac4_human HDAC4, P56524 (P56524 whole entry): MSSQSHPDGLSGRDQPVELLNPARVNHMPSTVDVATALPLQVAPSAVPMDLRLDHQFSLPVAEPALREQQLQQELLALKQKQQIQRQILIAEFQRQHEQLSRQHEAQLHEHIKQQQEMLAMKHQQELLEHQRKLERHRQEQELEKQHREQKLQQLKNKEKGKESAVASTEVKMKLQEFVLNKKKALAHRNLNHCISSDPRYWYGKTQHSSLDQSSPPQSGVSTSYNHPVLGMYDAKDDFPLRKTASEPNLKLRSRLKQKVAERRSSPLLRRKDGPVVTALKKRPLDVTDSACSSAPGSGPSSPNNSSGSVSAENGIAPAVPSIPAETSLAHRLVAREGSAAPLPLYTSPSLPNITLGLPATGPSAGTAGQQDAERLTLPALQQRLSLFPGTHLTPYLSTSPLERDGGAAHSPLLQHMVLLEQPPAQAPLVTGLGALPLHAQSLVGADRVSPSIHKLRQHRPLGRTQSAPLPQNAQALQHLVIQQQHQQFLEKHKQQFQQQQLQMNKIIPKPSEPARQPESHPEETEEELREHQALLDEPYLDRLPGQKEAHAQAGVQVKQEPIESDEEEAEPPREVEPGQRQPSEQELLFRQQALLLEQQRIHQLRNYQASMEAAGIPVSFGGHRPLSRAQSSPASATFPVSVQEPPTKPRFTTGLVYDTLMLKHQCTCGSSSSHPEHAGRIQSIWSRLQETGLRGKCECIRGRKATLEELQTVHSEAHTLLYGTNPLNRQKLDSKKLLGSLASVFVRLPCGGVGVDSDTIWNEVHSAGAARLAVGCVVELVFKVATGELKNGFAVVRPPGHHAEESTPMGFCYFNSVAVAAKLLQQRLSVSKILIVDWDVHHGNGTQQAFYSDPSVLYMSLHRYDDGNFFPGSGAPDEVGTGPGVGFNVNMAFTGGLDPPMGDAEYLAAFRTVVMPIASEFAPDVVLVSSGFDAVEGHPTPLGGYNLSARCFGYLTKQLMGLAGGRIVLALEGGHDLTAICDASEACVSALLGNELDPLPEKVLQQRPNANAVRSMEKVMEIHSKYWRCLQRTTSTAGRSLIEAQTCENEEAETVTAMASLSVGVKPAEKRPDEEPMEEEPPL

| Variant | effect of a mutation on the interaction |
| --- | --- |
| S33A;S35A;S62A | decreasing interaction strength |

From IntAct's records for PubMed 17159145
